Source: publication PMC12136220
Where “and” joins values, the source holds several entries; their conditions need not be identical. Equal entries are not always repeated.

Experiments:
[1] = molecular target: human recombinant Hsp60 (human) (UniProt P10809)
[2] = molecular target: Listeria adhesion protein (LAP) (Listeria monocytogenes); test: cryo-EM structure; LAP alone, 1.2 mg/ml, Titan Krios 300 kV with K3 detector, cryoSPARC
[3] = molecular target: human recombinant Hsp60 (human) (UniProt P10809); remark: listed apart in the source
[4] = molecular target: Listeria adhesion protein (LAP) (Listeria monocytogenes); test: cryo-EM structure; purified LAP mixed with Hsp60 at 2:1, incubated 4 h at 4°C; Titan Krios 300 kV with K3 detector, cryoSPARC; LAP-Hsp60 map refined in C1, Hsp60 alone in C7, LAP dimer in C2

Sequence of human recombinant Hsp60 (human) (P10809 27-573): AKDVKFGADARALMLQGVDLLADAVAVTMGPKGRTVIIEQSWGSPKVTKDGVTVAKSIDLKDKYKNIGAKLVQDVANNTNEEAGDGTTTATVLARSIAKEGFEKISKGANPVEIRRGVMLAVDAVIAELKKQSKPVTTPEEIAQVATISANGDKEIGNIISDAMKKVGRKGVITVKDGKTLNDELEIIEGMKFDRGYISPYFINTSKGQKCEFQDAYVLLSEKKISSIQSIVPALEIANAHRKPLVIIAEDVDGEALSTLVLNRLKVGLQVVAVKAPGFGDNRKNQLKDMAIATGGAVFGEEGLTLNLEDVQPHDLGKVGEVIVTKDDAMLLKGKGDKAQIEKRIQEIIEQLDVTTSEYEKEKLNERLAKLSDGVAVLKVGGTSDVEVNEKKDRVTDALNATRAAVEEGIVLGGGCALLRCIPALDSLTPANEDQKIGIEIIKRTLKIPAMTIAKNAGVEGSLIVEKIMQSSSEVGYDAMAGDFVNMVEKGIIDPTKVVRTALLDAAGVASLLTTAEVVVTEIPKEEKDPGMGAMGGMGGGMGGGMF

Substance	FD4 paracellular flux through Caco-2 monolayers in 1 h, relative to PBS control [1]	stoichiometry N [2]	FD4 (FITC 4-kDa dextran) permeability through Caco-2 monolayers after 1 h, LAP 0.01-5 μg/mL [3]	stoichiometry N [4]	decrease of TEER of Caco-2 monolayers in 1 h, relative to full-length LAP (100%) [1]
Listeria adhesion protein (LAP) (natural protein)	264%	2 and 4	80%	4 and 2	
N2 subdomain of LAP (domain or fragment)	149%				96%
N1 subdomain of LAP (domain or fragment)	133%				78%
